Substrate in this data set: N[C@@H](CC(=O)O)C(=O)O
The data set can be described thus: purified protein. The settings on record: 300 mM Na+ outside, pH 7, 10 mM potassium phosphate, valinomycin, 300 mM KCl in lumen, mixed membrane orientation, no sybody, labelled compound.

One may read the Km as the substrate concentration at which the rate is half of its maximum. In general, kcat refers to the number of substrate molecules converted per active site and unit of time at saturation.

B1: GltTk (Thermococcus kodakarensis KOD1) (protein)
chain: MGKSLLRRYLDYPVLWKILWGLVLGAVFGLIAGHFGYAGAVKTYIKPFGDLFVRLLKMLVMPIVLASLVVGAASISPARLGRVGVKIVVYYLATSAMAVFFGLIVGRLFNVGANVNLGSGTGKAIEAQPPSLVQTLLNIVPTNPFASLAKGEVLPVIFFAIILGIAITYLMNRNEERVRKSAETLLRVFDGLAEAMYLIVGGVMQYAPIGVFALIAYVMAEQGVRVVGPLAKVVGAVYTGLFLQIVITYFILLKVFGIDPIKFIRKAKDAMITAFVTRSSSGTLPVTMRVAEEEMGVDKGIFSFTLPLGATINMDGTALYQGVTVLFVANAIGHPLTLGQQLVVVLTAVLASIGTAGVPGAGAIMLAMVLQSVGLDLTPGSPVALAYAMILGIDAILDMGRTMVNVTGDLAGTVIVAKTEKELDESKWIS
Turning to B1, the Km came to 0.70 ± 0.22 µM and the kcat amounted to 0.895 s⁻¹.
